In article PMC6791870, “Switch of the interactions between the ribosomal stalk and EF1A in the GTP- and GDP-bound conformations” (Scientific Reports, 2019):
Primed or numbered codes have the meaning given here. Where no end group is shown, it is not given here. FITC′ = fluorescein isothiocyanate label

Experiments:
Conditions in all cases: both partners purified
[1] = target: T1, Pyrococcus horikoshii elongation factor aEF1A (PhoEF1A) (P. horikoshii, UniProt O59153 1-428); assay: pull-down; MBP-P1 fusion held on amylose resin; EF1A (1,000 pmol), Pelota (1,000 pmol) and equal amounts of MBP-P1 in 100 µl PD buffer (25 mM Tris-HCl pH 8.0, 200 mM NaCl, 10 mM MgCl2, 1 mM GTP), 4 °C, 90 min; eluted with 50 mM maltose; SDS-PAGE, CBB staining
T1 construct: elongation factor 1-alpha (aEF1A) of Pyrococcus horikoshii; the nucleotide is named in the assay's format; also called PhoEF1A•GTP; PhoEF1A•GDP
T1 sequence: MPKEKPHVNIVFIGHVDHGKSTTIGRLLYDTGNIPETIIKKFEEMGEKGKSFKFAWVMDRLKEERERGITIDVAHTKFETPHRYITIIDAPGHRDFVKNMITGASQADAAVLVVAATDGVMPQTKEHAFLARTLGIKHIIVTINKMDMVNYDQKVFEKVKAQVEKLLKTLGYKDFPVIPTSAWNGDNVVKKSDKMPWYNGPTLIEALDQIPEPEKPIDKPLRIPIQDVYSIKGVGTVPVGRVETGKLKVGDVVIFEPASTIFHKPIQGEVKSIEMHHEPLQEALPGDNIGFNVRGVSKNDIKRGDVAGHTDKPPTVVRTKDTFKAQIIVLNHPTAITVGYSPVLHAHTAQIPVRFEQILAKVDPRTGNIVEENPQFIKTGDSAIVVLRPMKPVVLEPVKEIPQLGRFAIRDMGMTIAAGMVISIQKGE

[2] = target: T2, PhoEF1A•GTP•PfuPelota complex (P. horikoshii | Pyrococcus furiosus, UniProt O59153 1-428; Q8U150 1-356); assay: fluorescence polarisation; FITC-labelled peptide (50 nM) with 0-160 µM PhoEF1A•GTP•PfuPelota complex in FP buffer (20 mM HEPES-KOH pH 7.6, 10 mM MgCl2, 150 mM KCl, 0.1 mg/ml BSA), 25 °C; one site specific binding fit
T2 construct: aPelota of Pyrococcus furiosus; Complex of m2 (GTP form) and m3, titrated as a complex in fluorescence polarisation; also called aEF1A•GTP•aPelota; source: E. coli, each protein purified, then complexed with GTP
T2 sequence 1: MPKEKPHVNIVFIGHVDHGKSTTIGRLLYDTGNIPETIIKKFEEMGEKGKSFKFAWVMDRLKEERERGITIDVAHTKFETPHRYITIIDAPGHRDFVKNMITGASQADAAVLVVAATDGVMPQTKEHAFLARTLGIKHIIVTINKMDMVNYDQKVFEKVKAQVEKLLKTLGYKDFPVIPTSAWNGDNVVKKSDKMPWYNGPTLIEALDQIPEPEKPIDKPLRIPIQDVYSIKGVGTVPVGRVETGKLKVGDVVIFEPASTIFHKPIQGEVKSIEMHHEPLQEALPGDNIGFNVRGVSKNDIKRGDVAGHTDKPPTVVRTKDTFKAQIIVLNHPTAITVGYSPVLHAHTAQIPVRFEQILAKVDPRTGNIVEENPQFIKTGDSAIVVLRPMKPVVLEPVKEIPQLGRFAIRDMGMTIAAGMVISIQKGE
T2 sequence 2: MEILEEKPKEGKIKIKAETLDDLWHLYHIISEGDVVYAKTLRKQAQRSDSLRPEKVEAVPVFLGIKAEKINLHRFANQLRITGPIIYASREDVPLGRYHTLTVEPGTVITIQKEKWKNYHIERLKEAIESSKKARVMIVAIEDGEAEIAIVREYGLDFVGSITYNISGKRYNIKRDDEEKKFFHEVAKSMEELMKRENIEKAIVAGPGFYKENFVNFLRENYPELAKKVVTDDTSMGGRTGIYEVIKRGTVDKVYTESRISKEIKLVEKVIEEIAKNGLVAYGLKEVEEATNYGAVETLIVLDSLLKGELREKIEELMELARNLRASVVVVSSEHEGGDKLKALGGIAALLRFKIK

[3] = target: T1, Pyrococcus horikoshii elongation factor …; assay: fluorescence polarisation; FITC-labelled PhoP1C14 with increasing PhoEF1A•GDP complex; same assay as for the GTP complex
[4] = target: T3, Aeropyrum pernix elongation factor aEF1A (ApeEF1A) (Aeropyrum pernix, UniProt Q9YAV0 1-437); assay: crystal structure; ApeP1C17•ApeEF1A•GTP•ApePelota complex, sitting drop vapor diffusion at 20 °C, 3.0 Å
T3 construct: elongation factor 1-alpha (aEF1A) of Aeropyrum pernix; also called ApeEF1A•GTP; wild type ApeEF1A
T3 sequence (looked up): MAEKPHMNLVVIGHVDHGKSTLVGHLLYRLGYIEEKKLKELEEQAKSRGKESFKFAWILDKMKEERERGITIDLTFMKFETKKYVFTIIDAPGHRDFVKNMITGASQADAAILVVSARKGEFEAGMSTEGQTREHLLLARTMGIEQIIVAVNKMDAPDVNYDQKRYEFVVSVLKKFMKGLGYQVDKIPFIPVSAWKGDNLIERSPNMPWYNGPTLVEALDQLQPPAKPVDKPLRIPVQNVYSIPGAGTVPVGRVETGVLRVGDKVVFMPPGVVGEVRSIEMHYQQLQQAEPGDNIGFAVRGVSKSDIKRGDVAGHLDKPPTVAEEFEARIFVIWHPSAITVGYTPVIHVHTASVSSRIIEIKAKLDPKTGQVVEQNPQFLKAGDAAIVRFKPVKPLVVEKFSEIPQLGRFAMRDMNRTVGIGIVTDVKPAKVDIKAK

[5] = target: T3, Aeropyrum pernix elongation factor …; assay: pull-down; MBP-P1 fusion held on amylose resin; EF1A (1,000 pmol), Pelota (1,000 pmol) and equal amounts of MBP-P1 in 100 µl PD buffer (25 mM Tris-HCl pH 8.0, 200 mM NaCl, 10 mM MgCl2, 1 mM GTP), 4 °C, 90 min; eluted with 50 mM maltose; SDS-PAGE, CBB staining

Binder | binding result [1] | binding result [4] | also measured
SEEEALAGLSALFG (domain or fragment, P. horikoshii, C-terminal 14 residues of P. horikoshii ribosomal stalk protein aP1; made by removing residues 61-94 from pMAL-c4x-aP1[61-108]; the 14 residues are identical in both species; Vector pMAL-c4x; also called MBP-PfuP1C14; not shown: MBP, N-terminal, kept) [maltose-binding protein fused to the C-terminal 14 amino acid sequence of PhoP1 (MBP-PhoP1C14)] | binds | – | –
Pyrococcus furiosus aPelota (PfuPelota) (natural protein, UniProt Q8U150 1-356, looked up, aPelota of Pyrococcus furiosus) MEILEEKPKEGKIKIKAETLDDLWHLYHIISEGDVVYAKTLRKQAQRSDSLRPEKVEAVPVFLGIKAEKINLHRFANQLRITGPIIYASREDVPLGRYHTLTVEPGTVITIQKEKWKNYHIERLKEAIESSKKARVMIVAIEDGEAEIAIVREYGLDFVGSITYNISGKRYNIKRDDEEKKFFHEVAKSMEELMKRENIEKAIVAGPGFYKENFVNFLRENYPELAKKVVTDDTSMGGRTGIYEVIKRGTVDKVYTESRISKEIKLVEKVIEEIAKNGLVAYGLKEVEEATNYGAVETLIVLDSLLKGELREKIEELMELARNLRASVVVVSSEHEGGDKLKALGGIAALLRFKIK | binds | – | –
{FITC′}-SEEEALAGLSALFG (C-terminal 14 residues of P. horikoshii ribosomal stalk protein aP1 (last residues L106, F107, G108); also called WT; C-terminal peptide; source: synthetic peptide (Hokkaido System Science)) [C-terminal 14-mer peptide of P. horikoshii aP1 (PhoP1C14), FITC-labelled] | – | – | Kd [2]: 23.6 µM; Kd [3]: 10.4 µM
KKEEEVDLSGLSGMFGF (C-terminal 17 residues of Aeropyrum pernix ribosomal stalk protein aP1 (ends at F111); also called aP1C17; aP1-CTD; source: synthetic peptide (Hokkaido System Science)) [C-terminal 17-mer peptide of A. pernix aP1 (ApeP1C17)] | – | binds | –
Aeropyrum pernix aPelota (ApePelota) (natural protein, A. pernix, UniProt Q9YAZ5 1-356, looked up, aPelota of Aeropyrum pernix) MRVEVLDNKRRIVRLRPESEEDLWLLRITLRPGDVVRIRTSRDVPVGSGRKERVVMTLRIRLDSIEFQPFTGKLRISGIVVEGPDEFGVKGRRHSTAVSIGTWLVVERDKGWSEQELERLASGRARGTAVIAAVDYDEFALAVLAGHGMKILEDTSARLPGKDDPSREQEVEKYVDRAAKRIVEEAARHRSPIAVIAGPGQLKTSVAEKVQRAMPSLKVATVDTSMGGVAGVREALRRESVTRILRELSIVEAEGVLEEFLRRIAKSRDTVAYTPGEVLAVARMGAVDTVLLVDTLLHSPDDAVREAVDEALRLVESMGGRVIIIPGDSPAGERLVSFGGVIALLRYPVPQEARRL | – | binds | –
EEEVDLSGLSGMFGF (domain or fragment, Vector pMAL-c4x, EcoRI-PstI; not shown: MBP, N-terminal, kept) [N-terminal MBP fused with the C-terminal 15 amino acid residues of A. pernix aP1 (MBP-ApeP1C15)] | – | – | binding result [5]: binds
